Assay results reported in publication PMC8153946, “Substrate Selectivity of Coumarin Derivatives by Human CYP1 Enzymes: In Vitro Enzyme Kinetics and In Silico Modeling” (ACS Omega, 2021).

Tests used:
Assay type in all cases: biochemical, human
[1] = substrate: CC(=O)Oc1ccc(-c2cc3cc(Cl)ccc3oc2=O)cc1; assay: Michaelis–Menten kinetics of oxidation to fluorescent 7-hydroxy metabolite by recombinant CYP1B1; conditions: other: recombinant CYP1B1, 100 mM Tris-HCl pH 7.4, 37 °C, 95% confidence interval in brackets
Experimental: (§1) Baculovirus-insect cell-expressed human CYP1A1, CYP1A2, CYP1B1, CYP2A6, CYP2B6, CYP2C8, CYP2C9, CYP2C19, CYP2D6, CYP2E1, CYP3A4, CYP3A5, and CYP3A7 were purchased from BD Biosciences Discovery Labware (Woburn, MA, USA) and used according to the manufacturer’s instructions.
(§2) The kinetic assays were carried out in 100 μL volume containing 100 mM Tris-HCl buffer pH 7.4, 0–40 μM coumarin derivative or 0–10 μM 7-ethoxyresorufin, 1–25 nM recombinant CYP or 0–0.1 g/L microsomal protein, and 20% NADPH regenerating system. Incubations took place at 37 °C in 96-multiwell plates; the fluorescence was measured with a Victor[2] plate reader (PerkinElmer Life Sciences, Turku, Finland). The detailed conditions are described in the figures and tables. The reaction was started by adding NADPH, and fluorescence was measured at 2 min intervals for 40 min using excitation at 405 nm and emission at 460 nm for oxidation of coumarin derivatives[18] and excitation at 570 nm and emission at 615 nm for ethoxyresorufin or pentoxyresorufin 7-O-dealkylations. Incubations without the substrate, enzyme, or NADPH were used as blank reactions. Resorufin was used as a standard, and 3-(4-fluorophenyl)-7-hydroxycoumarin was used as the surrogate standards to calculate the amount of product formed. The linear phase of the reactions was used for calculations.
(§3) Enzyme kinetic parameters were analyzed using the nonlinear Michaelis–Menten equation v = Vmax × S/(Km + S), in which v is the rate for 7-hydroxylation of a coumarin derivative, S is its concentration, and Vmax value is the limiting rate of the reaction of 7-hydroxylation, which reached a half-maximal rate at a concentration of Km for the substrate.

[2] = substrate: CC(=O)Oc1cccc(-c2cc3cc(Cl)ccc3oc2=O)c1; assay: as above; conditions: other: recombinant CYP1B1, 100 mM Tris-HCl pH 7.4, 37 °C, 95% confidence interval in brackets
Experimental: as §1, §2, §3

[3] = substrate: CCCCCOc1ccc2nc3ccc(=O)cc-3oc2c1; assay: as above; conditions: other: recombinant CYP1B1, 100 mM Tris-HCl pH 7.4, 37 °C, 95% confidence interval in brackets
Experimental: as §1, §2, §3

[4] = substrate: CCOc1ccc2ccc(=O)oc2c1; assay: as above; conditions: other: recombinant CYP1B1, 100 mM Tris-HCl pH 7.4, 37 °C, 95% confidence interval in brackets
Experimental: as §1, §2, §3

[5] = substrate: CCOc1ccc2nc3ccc(=O)cc-3oc2c1; assay: as above; conditions: other: recombinant CYP1B1, 100 mM Tris-HCl pH 7.4, 37 °C, 95% confidence interval in brackets
Experimental: as §1, §2, §3

[6] = substrate: COc1cccc(-c2cc3cc(OC)ccc3oc2=O)c1; assay: as above; conditions: other: recombinant CYP1B1, 100 mM Tris-HCl pH 7.4, 37 °C, 95% confidence interval in brackets
Experimental: as §1, §2, §3

[7] = substrate: O=c1oc2ccc(O)cc2cc1-c1cccc(O)c1; assay: as above; conditions: other: recombinant CYP1B1, 100 mM Tris-HCl pH 7.4, 37 °C, 95% confidence interval in brackets
Experimental: as §1, §2, §3

[8] = substrate: CC(=O)Oc1ccc(-c2cc3cc(Cl)ccc3oc2=O)cc1; assay: Michaelis–Menten kinetics of oxidation to fluorescent 7-hydroxy metabolite by recombinant CYP1A2; conditions: other: recombinant CYP1A2, 100 mM Tris-HCl pH 7.4, 37 °C, 95% confidence interval in brackets
Experimental: as §1, §2, §3

[9] = substrate: CCOc1ccc2nc3ccc(=O)cc-3oc2c1; assay: as above; conditions: other: recombinant CYP1A2, 100 mM Tris-HCl pH 7.4, 37 °C, 95% confidence interval in brackets
Experimental: as §1, §2, §3

[10] = substrate: COc1ccc(-c2cc3cc(OC(C)=O)ccc3oc2=O)cc1; assay: as above; conditions: other: recombinant CYP1A2, 100 mM Tris-HCl pH 7.4, 37 °C, 95% confidence interval in brackets
Experimental: as §1, §2, §3

[11] = substrate: COc1ccc2cc(-c3ccc(OC(F)(F)F)cc3)c(=O)oc2c1; assay: as above; conditions: other: recombinant CYP1A2, 100 mM Tris-HCl pH 7.4, 37 °C, 95% confidence interval in brackets
Experimental: as §1, §2, §3

[12] = substrate: COc1ccc2oc(=O)c(-c3ccc(O)c(F)c3)cc2c1; assay: as above; conditions: other: recombinant CYP1A2, 100 mM Tris-HCl pH 7.4, 37 °C, 95% confidence interval in brackets
Experimental: as §1, §2, §3

[13] = substrate: COc1ccc2oc(=O)c(-c3ccc(OC(F)(F)F)cc3)cc2c1; assay: as above; conditions: other: recombinant CYP1A2, 100 mM Tris-HCl pH 7.4, 37 °C, 95% confidence interval in brackets
Experimental: as §1, §2, §3

[14] = substrate: COc1cccc(-c2cc3cc(OC)ccc3oc2=O)c1; assay: as above; conditions: other: recombinant CYP1A2, 100 mM Tris-HCl pH 7.4, 37 °C, 95% confidence interval in brackets
Experimental: as §1, §2, §3

[15] = substrate: Cc1ccc2oc(=O)c(-c3ccc(F)cc3)cc2c1; assay: as above; conditions: other: recombinant CYP1A2, 100 mM Tris-HCl pH 7.4, 37 °C, 95% confidence interval in brackets
Experimental: as §1, §2, §3

[16] = substrate: O=c1oc2ccc(O)cc2cc1-c1cccc(O)c1; assay: as above; conditions: other: recombinant CYP1A2, 100 mM Tris-HCl pH 7.4, 37 °C, 95% confidence interval in brackets
Experimental: as §1, §2, §3

[17] = substrate: O=c1oc2ccccc2cc1-c1cccc(O)c1; assay: as above; conditions: other: recombinant CYP1A2, 100 mM Tris-HCl pH 7.4, 37 °C, 95% confidence interval in brackets
Experimental: as §1, §2, §3

B1: human CYP1B1 (Homo sapiens) (protein)
chain: MGTSLSPNDPWPLNPLSIQQTTLLLLLSVLATVHVGQRLLRQRRRQLRSAPPGPFAWPLIGNAAAVGQAAHLSFARLARRYGDVFQIRLGSCPIVVLNGERAIHQALVQQGSAFADRPAFASFRVVSGGRSMAFGHYSEHWKVQRRAAHSMMRNFFTRQPRSRQVLEGHVLSEARELVALLVRGSADGAFLDPRPLTVVAVANVMSAVCFGCRYSHDDPEFRELLSHNEEFGRTVGAGSLVDVMPWLQYFPNPVRTVFREFEQLNRNFSNFILDKFLRHCESLRPGAAPRDMMDAFILSAEKKAAGDSHGGGARLDLENVPATITDIFGASQDTLSTALQWLLLLFTRYPDVQTRVQAELDQVVGRDRLPCMGDQPNLPYVLAFLYEAMRFSSFVPVTIPHATTANTSVLGYHIPKDTVVFVNQWSVNHDPLKWPNPENFDPARFLDKDGLINKDLTSRVMIFSVGKRRCIGEELSKMQLFLFISILAHQCDFRANPNEPAKMNFSYGLTIKPKSFKVNVTLRESMELLDSAVQNLQAKETCQ
notes: purchased BD Biosciences Discovery Labware (Woburn, MA, USA); host or cells: baculovirus-insect cells
For B1, the Km [1] was 0.095 (0.04–0.15) μM, the kcat [1] was 5.1 (4.7–5.5) mol/(min·mol CYP) and the Km [2] was 1.1 (0.5–1.7) μM. For the same protein, the kcat [2] was 1.1 (0.96–1.2) mol/(min·mol CYP), the Km [3] was 2.59 (1.65–3.53) μM and the kcat [3] was 0.37 (0.28–0.46) mol/(min·mol CYP). The Km [4] was 120 (0–282) μM, the kcat [4] was 1.75 (0–3.54) mol/(min·mol CYP) and the Km [5] was 0.096 (0.072–0.119) μM. The kcat [5] was 3.3 (3.0–3.6) mol/(min·mol CYP), the Km [6] was 0.43 (0.24–0.61) μM and the kcat [6] was 9.3 (8.2–10.4) mol/(min·mol CYP). For the same protein, the Km [7] was 0.53 (0–1.1) μM and the kcat [7] was 0.29 (0.25–0.34) mol/(min·mol CYP).

B2: human CYP1A2 (Homo sapiens) (protein)
chain: MALSQSVPFSATELLLASAIFCLVFWVLKGLRPRVPKGLKSPPEPWGWPLLGHVLTLGKNPHLALSRMSQRYGDVLQIRIGSTPVLVLSRLDTIRQALVRQGDDFKGRPDLYTSTLITDGQSLTFSTDSGPVWAARRRLAQNALNTFSIASDPASSSSCYLEEHVSKEAKALISRLQELMAGPGHFDPYNQVVVSVANVIGAMCFGQHFPESSDEMLSLVKNTHEFVETASSGNPLDFFPILRYLPNPALQRFKAFNQRFLWFLQKTVQEHYQDFDKNSVRDITGALFKHSKKGPRASGNLIPQEKIVNLVNDIFGAGFDTVTTAISWSLMYLVTKPEIQRKIQKELDTVIGRERRPRLSDRPQLPYLEAFILETFRHSSFLPFTIPHSTTRDTTLNGFYIPKKCCVFVNQWQVNHDPELWEDPSEFRPERFLTADGTAINKPLSEKMMLFGMGKRRCIGEVLAKWEIFLFLAILLQQLEFSVPPGVKVDLTPIYGLTMKHARCEHVQARLRFSIN
notes: as for B1
For B2, the Km [8] was 2 (1.2–2.7) μM, the kcat [8] was 1.2 (1.1–1.4) mol/(min·mol CYP) and the Km [9] was 0.56 (0.44–0.68) μM. For the same protein, the kcat [9] was 3.2 (2.9–3.6) mol/(min·mol CYP), the Km [10] was 2.2 (1.6–2.8) μM and the kcat [10] was 8.7 (8–9.4) mol/(min·mol CYP). For the same protein, the Km [11] was 7.9 (5.1–10.6) μM, the kcat [11] was 9.1 (7.8–10.5) mol/(min·mol CYP) and the Km [12] was 20.3 (0–53) μM. The kcat [12] was 6.0 (0–12.8) mol/(min·mol CYP), the Km [13] was 0.96 (0.61–1.32) μM and the kcat [13] was 4.4 (4.1–4.8) mol/(min·mol CYP). The Km [14] was 0.27 (0.19–0.36) μM, the kcat [14] was 8.2 (7.6–8.9) mol/(min·mol CYP) and the Km [15] was 7.6 (0.59–14.6) μM. For the same protein, the kcat [15] was 1 (0.63–1.38) mol/(min·mol CYP), the Km [16] was 2.4 (1.8–3.1) μM and the kcat [16] was 29.8 (27.5–32.2) mol/(min·mol CYP). For the same protein, the Km [17] was 47 (8–86) μM and the kcat [17] was 0.4 (0.19–0.6) mol/(min·mol CYP).
